± gives the standard deviation of the averaged measurements.
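Also: ATP exposure 15 min at 22 °C before imaging.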

This data set has as its system ATP. Description: switch fluorescence ratio, 500 uM ATP over buffer (Cy3 cluster intensity, sum of 5 cycles each) (fold (ratio)); higher = stronger signal-on switching upon ATP binding; sequences stand for … in TCGTCGGCAGCGTCAGATGTGTATAAGAGACAGTTTTTTTTTTTTTTTTTTTTTTTTT…TC. The note with it: aptamer strand: ATP DNA aptamer (quencher-CACCTGGGGGAGTATTGCGGAGGAAGG + anchor), 100 nM annealed; ATP concentration: 500 uM. The method in brief:
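The fluorescence ratio divides summed target-cycle Cy3 intensity by summed buffer-cycle Cy3 intensity for each cluster and is averaged per switch-domain sequence. Cy3-labelled switching-strand clusters on a modified Illumina MiSeq flow-cell were annealed to 100 nM quencher-labelled ATP aptamer, then imaged in selection buffer and again after 15 min with 500 uM ATP at 22 °C. Five such cycles were run, with NaOH stripping and re-annealing between them, and clusters outside 100-1000 RFU were excluded.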
Consider ATAGCTTGTA, for which the switch fluorescence ratio was 0.995 ± 0.037.

Consider TTTGTAGGCA, for which the switch fluorescence ratio came out at 0.989 ± 0.011.

Regarding CCTATAATAG, the switch fluorescence ratio came to 1.17 ± 0.064.

In the case of TTCTTTGGTT, the switch fluorescence ratio came to 0.9889 ± 0.0055.

As to AAGGGGTCCA, the switch fluorescence ratio is 0.991 ± 0.029.

In the case of GGTTGGGTTT, the switch fluorescence ratio is 0.989 ± 0.03.

For the sequence GCTAGCGTGG, the switch fluorescence ratio was 1.02 ± 0.091.

In the case of GGGACATTAT, the switch fluorescence ratio came out at 1 ± 0.02.

Consider CGGGTTCTTT, for which the switch fluorescence ratio worked out at 1.03 ± 0.11.

As for TTTTGGGTAG, the switch fluorescence ratio was 0.984 ± 0.03.

Take AGAAGGCCGG: the switch fluorescence ratio was 0.98 ± 0.056.

For TAATTACAGT, the switch fluorescence ratio amounted to 0.9904 ± 0.0021.

AGTATGGTAG: the switch fluorescence ratio stood at 1.0145 ± 0.00092.

On to GCAGGTTGGT, for which the switch fluorescence ratio stood at 1.036 ± 0.0042.

Turning to ATAGTTGTTT, the switch fluorescence ratio is 1 ± 0.019.

For the sequence AATTTCTCGT, the switch fluorescence ratio is 0.996 ± 0.016.

Consider AGATGGTCAC, for which the switch fluorescence ratio was determined as 1.032 ± 0.0086.

TGGTAACGCG: the switch fluorescence ratio was 1 ± 0.014.

With CGCTTTGGTT, the switch fluorescence ratio was determined as 1.04 ± 0.012.

On to CGTTGTGTAG, for which the switch fluorescence ratio is 1.02 ± 0.013.

On to TCCATAGGGC, for which the switch fluorescence ratio is 1.002 ± 0.0048.

For GGGGGTATAG, the switch fluorescence ratio turned out to be 1.02 ± 0.022.

Consider TCGGGGCAGG, for which the switch fluorescence ratio was found to be 0.988 ± 0.013.

On to CTATCTATTG, for which the switch fluorescence ratio is 0.9923 ± 0.0014.

For GGTCCTGGGG, the switch fluorescence ratio was found to be 1.01 ± 0.039.

Take ACGTGTTTGT: the switch fluorescence ratio worked out at 1.03 ± 0.018.

With GTGACTTTTA, the switch fluorescence ratio turned out to be 1.01 ± 0.035.

Take GAACTAAGGA: the switch fluorescence ratio amounted to 0.9895 ± 0.0027.

Consider AGGTGGGATT, for which the switch fluorescence ratio amounted to 1.02 ± 0.033.

In the case of TTGTGTCTGC, the switch fluorescence ratio is 0.999 ± 0.011.

On to TAAGAGAAGT, for which the switch fluorescence ratio stood at 1.018 ± 0.0073.

Regarding TTTATGGTTT, the switch fluorescence ratio worked out at 1 ± 0.031.

For the sequence CATGCTTCAT, the switch fluorescence ratio was 0.988 ± 0.017.

CGAGGGGGTT: the switch fluorescence ratio was found to be 1 ± 0.02.

With AAGGCCAATA, the switch fluorescence ratio stood at 1.05 ± 0.033.

As for CGCTCCGGAG, the switch fluorescence ratio was 1.18 ± 0.14.

For the sequence TCTGTCCCTT, the switch fluorescence ratio was 1.01 ± 0.024.

For ATGAGGCAGT, the switch fluorescence ratio turned out to be 1.12 ± 0.039.

Take GATATATTAT: the switch fluorescence ratio worked out at 1.017 ± 0.0038.

Consider AATTCCTAGG, for which the switch fluorescence ratio came out at 1.03 ± 0.025.

CAGCATGGGG: the switch fluorescence ratio was found to be 1.03 ± 0.017.

Turning to TATTCTGCTA, the switch fluorescence ratio turned out to be 1.02 ± 0.024.

Regarding GTTCACGGGA, the switch fluorescence ratio is 1 ± 0.058.

Turning to AGGCGTGGGA, the switch fluorescence ratio turned out to be 1.001 ± 0.0083.

In the case of GGGAGTAGCG, the switch fluorescence ratio worked out at 0.997 ± 0.022.

Turning to ACTGTGCCGG, the switch fluorescence ratio turned out to be 1.02 ± 0.043.

Consider TATGCAATCA, for which the switch fluorescence ratio stood at 1.03 ± 0.02.

Take GACGCACGAA: the switch fluorescence ratio amounted to 1.58 ± 0.057.

Turning to AAGTAGGGGG, the switch fluorescence ratio was 0.951 ± 0.016.

As to GGGGTGGATA, the switch fluorescence ratio is 0.996 ± 0.027.

Consider ATGATGGTGG, for which the switch fluorescence ratio stood at 1.02 ± 0.057.

As to AAGCTTTTCA, the switch fluorescence ratio amounted to 1.03 ± 0.041.

Consider CTCATATTCA, for which the switch fluorescence ratio turned out to be 1.02 ± 0.027.

Take GATCGAGGGG: the switch fluorescence ratio amounted to 1.05 ± 0.1.

In the case of AGAAACAAAC, the switch fluorescence ratio came out at 1.041 ± 0.0083.

Turning to ATATTTACTA, the switch fluorescence ratio was determined as 1.11 ± 0.11.

As for AGCTGACCGA, the switch fluorescence ratio came to 1.083 ± 0.0037.

For the sequence GCCATTTTGA, the switch fluorescence ratio was determined as 0.956 ± 0.037.

CTTAGGGGCG: the switch fluorescence ratio is 0.976 ± 0.024.

In the case of GAAAATAGGT, the switch fluorescence ratio was found to be 0.99 ± 0.024.

On to TTTTTCGCTC, for which the switch fluorescence ratio amounted to 1.01 ± 0.042.

On to CGTCAGCGGC, for which the switch fluorescence ratio was determined as 1.25 ± 0.053.

Regarding GTTATTTTCC, the switch fluorescence ratio is 1.01 ± 0.071.

As to TGCGTGAAGT, the switch fluorescence ratio was found to be 1.041 ± 0.0091.

Consider GCAGGTAGGG, for which the switch fluorescence ratio was found to be 0.998 ± 0.039.

As to TGATTGTACT, the switch fluorescence ratio was 1 ± 0.02.

As to GTTTTCCGTC, the switch fluorescence ratio turned out to be 1 ± 0.013.

As to AGAGTCAATG, the switch fluorescence ratio came to 1.04 ± 0.023.

As for TGGTGGAATT, the switch fluorescence ratio was found to be 1.02 ± 0.034.

As to TTAGATTGCA, the switch fluorescence ratio amounted to 1.001 ± 0.0083.

With CCAATTGTGG, the switch fluorescence ratio was found to be 0.9977 ± 0.0056.

As for TCGTATTGTG, the switch fluorescence ratio stood at 0.975 ± 0.032.

With GCGGTAGTTC, the switch fluorescence ratio worked out at 1.02 ± 0.023.

In the case of TAATCGTGCT, the switch fluorescence ratio worked out at 0.973 ± 0.019.

Take CCAGTAATGT: the switch fluorescence ratio came to 1.04 ± 0.041.

Take CAGAGGGGGG: the switch fluorescence ratio was found to be 0.994 ± 0.019.

Consider CGTGACCAGG, for which the switch fluorescence ratio came to 1.14 ± 0.029.

As to ATGGTGCGGT, the switch fluorescence ratio is 0.987 ± 0.02.

For GAGTCAAGGG, the switch fluorescence ratio amounted to 0.998 ± 0.021.

The record behind these values is the supplement of paper PMC10126150.
